# Target: CTBMPR (not stated | Human immunodeficiency virus 1 (HIV-1)) (UniProt P01556)
# Experiment: SEC
substance,measurement,value
CTBMPR (from UniProt P01556 22-124),stoichiometry N,5

# From publication PMC4174873
